Positions of bridges follow the written chain, without caps; N, C: chain ends. Non-standard residues stand in square brackets, D forms with d. No end group written: not given here. Aib = CC(C)(N)C(=O)O
T1: human GIP receptor (human, UniProt P48546 22-466)
T1 sequence (looked up): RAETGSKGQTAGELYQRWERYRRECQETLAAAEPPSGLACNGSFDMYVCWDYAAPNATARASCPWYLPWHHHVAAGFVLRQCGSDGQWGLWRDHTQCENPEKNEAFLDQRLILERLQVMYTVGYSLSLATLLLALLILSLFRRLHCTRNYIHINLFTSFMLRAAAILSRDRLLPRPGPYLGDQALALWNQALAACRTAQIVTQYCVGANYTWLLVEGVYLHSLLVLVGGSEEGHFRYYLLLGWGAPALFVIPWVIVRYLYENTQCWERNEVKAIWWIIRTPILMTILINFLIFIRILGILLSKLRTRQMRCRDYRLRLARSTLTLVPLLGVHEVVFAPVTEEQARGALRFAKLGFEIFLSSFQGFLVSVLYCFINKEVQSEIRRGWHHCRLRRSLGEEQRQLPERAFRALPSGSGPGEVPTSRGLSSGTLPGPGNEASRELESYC


Key:
Assay in all cases: cell-based or functional assay
[1] = molecular target: T1, human GIP receptor
[2] = molecular target: human GLP-1 receptor (human, UniProt P43220 24-463)
[3] = molecular target: human GCG receptor (human, UniProt P47871 26-477)
Chain of human GCG receptor (P47871 26-477): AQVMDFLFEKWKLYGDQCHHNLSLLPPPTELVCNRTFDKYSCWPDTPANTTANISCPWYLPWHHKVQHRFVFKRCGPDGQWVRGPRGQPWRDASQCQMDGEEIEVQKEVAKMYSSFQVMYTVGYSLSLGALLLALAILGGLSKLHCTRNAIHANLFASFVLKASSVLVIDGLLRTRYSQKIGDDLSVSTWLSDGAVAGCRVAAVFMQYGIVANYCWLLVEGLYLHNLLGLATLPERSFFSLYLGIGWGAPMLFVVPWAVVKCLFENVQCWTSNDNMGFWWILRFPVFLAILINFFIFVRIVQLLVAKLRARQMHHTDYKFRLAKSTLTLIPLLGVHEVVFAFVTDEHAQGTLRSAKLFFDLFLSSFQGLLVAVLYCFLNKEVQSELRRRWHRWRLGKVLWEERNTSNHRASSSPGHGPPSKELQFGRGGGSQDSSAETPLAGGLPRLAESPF

| Binder | In vitro activity relative to native peptide (%), vs. GIP (cAMP EC50) [1] | In vitro activity relative to native peptide (%), vs. GLP-1 (cAMP EC50) [2] | In vitro activity relative to native peptide (%), vs. Glucagon (cAMP EC50) [3] |
| --- | --- | --- | --- |
| H[Aib]QGTFTSDYSIAMDEIHQKDFVNWLLAQKC (bridge 16-20) [trigonal agonist of SEQ ID NO: 33] | 10.4% | 24.5% | < 0.1% |
| H[Aib]QGTFTSDYSKYLDEKAQKEFVQWLLDTC (bridge 16-20) [trigonal agonist of SEQ ID NO: 30] | 0.8% | 142% | 0.7% |
| H[Aib]QGTFTSDYSKYLDEKAAKEFVQWLLNTC (bridge 16-20) [trigonal agonist of SEQ ID NO: 29] | < 0.1% | 38.5% | 6% |
| H[Aib]QGTFTSDYSKYLDEKACKDFVQWLLDGGPSSGAPPPS (bridge 16-20) [trigonal agonist of SEQ ID NO: 32] | 8.8% | 151% | 1.7% |
| H[Aib]QGTFTSDYSKYLDERACQDFVQWLLDQGGPSSGAPPPS [trigonal agonist of SEQ ID NO: 27] | 0.9% | 83.1% | 0.8% |
| H[Aib]QGTFTSDYSKYLDEKACKEFVQWLLAQ (bridge 16-20) [trigonal agonist of SEQ ID NO: 31] | 2.4% | 135% | 2.2% |
| H[Aib]QGTFTSDYSKYLDEKRAQEFVCWLLAQKGKKNDWKHNIT [trigonal agonist of SEQ ID NO: 28] | < 0.1% | 17.2% | 1.6% |
| H[Aib]QGTFTSDCSKYLDSRAAQDFVQWLLDGGPSSGAPPPS [trigonal agonist of SEQ ID NO: 26] | < 0.1% | 64.5% | 0.2% |
| H[Aib]QGTFTSDCSKYLDERAAQDFVQWLLDGGPSSGAPPPS [trigonal agonist of SEQ ID NO: 25] | < 0.1% | 82.6% | 0.1% |

From patent US20230390362A1, “USE OF TRIGONAL AGONIST HAVING ACTIVITIES TO ALL OF GLUCAGON, GLP-1, AND GIP RECEPTORS IN TREATMENT OF SEQUELAE FOLLOWING RESPIRATORY INFECTIOUS DISEASES” (HANMI PHARM. CO., LTD., priority 2020, published 2023)
